B1: Motif 1 probe (WT) (dsDNA)
DNA 1: CTCGGTCCACGCCGCCCGTCGGGGTTCG
DNA 2: CGAACCCCGACGGGCGGCGTGGACCGAG
B2: ZmNRT3.1A promoter probe (dsDNA)
DNA 1: CACCAGCACCGGCGCCGCCATTCGCCCCCTG
DNA 2: CAGGGGGCGAATGGCGGCGCCGGTGCTGGTG
B3: ZmNRT1.2 promoter probe (dsDNA)
DNA 1: CCACCGCACTGTCGCCGCCGTGCAGGCTCCA
DNA 2: TGGAGCCTGCACGGCGGCGACAGTGCGGTGG
B4: ZmNRT2.1 promoter probe (dsDNA)
DNA 1: CCAGCAGCAGCAGCCGACTAAACGGCATAGA
DNA 2: TCTATGCCGTTTAGTCGGCTGCTGCTGCTGG
B5: ZmNRT1.1A promoter probe (dsDNA)
DNA 1: ATATATAGCGGGGCGCCGCCCACCCGGCGGAGC
DNA 2: GCTCCGCCGGGTGGGCGGCGCCCCGCTATATAT
B6: ZmNRT2.5 promoter probe (dsDNA)
DNA 1: GCCGCGCCCGCTGCCGCCTCCCAGCTCGCT
DNA 2: AGCGAGCTGGGAGGCGGCAGCGGGCGCGGC
B7: ZmNRT1.1B promoter probe (dsDNA)
DNA 1: AACAGGAGCACCCGCCGCCATGCTGCTCGCT
DNA 2: AGCGAGCAGCATGGCGGCGGGTGCTCCTGTT

These results are taken from article PMC11376383, “Transcription factor ZmEREB97 regulates nitrate uptake in maize (Zea mays) roots”.

The target of one data set is T1, ZmEREB97 (Zea mays (B73_v3 gene model; cDNA …, UniProt C4J4G2 1-222). Put plainly: EMSA; EMSA/Gel Shift Binding Buffer (Beyotime; composition, salt and pH not stated), 25 C, 20 min, about 80 ng protein, 2.5 ng probe. The settings on record: protein: recombinant; tags: 6xHis (pCold); label: 5'-biotin. (In general: A gel shift assay detects complexes by their altered migration in electrophoresis.)
T1 sequence (C4J4G2 entry or part of it): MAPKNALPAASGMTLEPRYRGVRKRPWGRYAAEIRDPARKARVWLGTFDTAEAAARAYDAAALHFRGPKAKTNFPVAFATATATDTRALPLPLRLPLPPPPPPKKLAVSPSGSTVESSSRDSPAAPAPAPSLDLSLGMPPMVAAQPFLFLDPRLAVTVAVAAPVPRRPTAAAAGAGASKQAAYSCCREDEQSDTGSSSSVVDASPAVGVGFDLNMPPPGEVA
Turning to B1, the binding result was “binds”.

A further data set deals with T1, ZmEREB97. Put plainly: EMSA; partially competed by 50-fold cold probe; EMSA/Gel Shift Binding Buffer (Beyotime; composition, salt and pH not stated), 25 C, 20 min, about 80 ng protein, 2.5 ng probe. The settings on record: protein: recombinant; tags: 6xHis (pCold); label: 5'-biotin.
Turning to B2, the binding result is “binds”.

On to B3, for which the binding result was “binds”.

Consider B4, for which the binding result was “binds”.

As for B5, the binding result is “binds”.

Consider B6, for which the binding result is reported as “binds”.

On to B7, for which the binding result is listed as “binds”.
